The subject of data set [1] is VchCAST RNA-guided transposition machinery (E. coli BL21(DE3) host, lacZ target). The experiment in a line: relative integration efficiency (T-LR orientation) vs wild-type transposon end (log2 (normalized fold change)); transposon end mutated: right end (5 bp flank + 75 bp right end); higher = more efficient transposition. Summed up:
(§1)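 Barcode abundances in input plasmids and in genomic integration junctions were obtained by PCR amplification and Illumina sequencing. These came from E. coli BL21(DE3) co-transformed with a T7-driven effector plasmid and a pUC57 donor carrying 1549 left-end or 1849 right-end transposon variants, then plated with 0.1 mM IPTG at 37°C for 18 h. Relative integration efficiency is the output/input fold change, normalised to reference barcodes and log-transformed.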

Data set [2] shares this test system. The experiment in a line: relative integration efficiency (T-RL orientation) vs wild-type transposon end (log2 (normalized fold change)); transposon end mutated: right end (5 bp flank + 75 bp right end); higher = more efficient transposition. Summed up:
as §1

Results on 32 sequences are retold here after the supplement of paper PMC10201428.

± gives the standard deviation of the averaged measurements.

“ACATTTGTGGATACAACCATAAAATGATAATTACACCCATAAATGGATCATTATCACACCCAATTTAACTATAACGCTCTGATCATAGTCAGACCAACATTGCTACGACCCGTATTCGCACCGACAC”: the “relative integration efficiency (log2)” value was 1.01 ± 0.2 in data set [1] and -1.53 ± 0.23 in data set [2].
The corresponding values for “ACATTTGTGGATACAACCATAAAATGATAATTACACCCATAAATGGATCATTATCACCCCCAATTTAACTATAACGCTCTGATCATAGTCAGACCAACATTGCTACGACCCGTATTCGCACCGACAC” are 1.36 ± 0.19 and -1.28 ± 0.28.
The corresponding values for “ACATTTGTGGATACAACCATAAAATGATAATTACACCCATAAATGGATTATTATCACACCCAATTTAACTATAACGCTCTGATCATAGTCAGACCAACATTGCTACGACCCGTATTCGCACCGACAC” are 1.2 ± 0.22 and -1.72 ± 0.3.
The corresponding values for “ACATTTGTGGATACAACCATAAAATGATAATTACACCCATAAATTCATAATTATCACACCCAATTTAACTATAACGCTCTGATCATAGTCAGACCAACATTGCTACGACCCGTATTCGCACCGACAC” are 0.877 ± 0.27 and -1.9 ± 0.49.
Turning to “ACATTTGTGGATACAACCATAAAATGATAATTACACCCATAAATTCATAATTATCACCCCCAATTTAACTATAACGCTCTGATCATAGTCAGACCAACATTGCTACGACCCGTATTCGCACCGACAC”, the results for the “relative integration efficiency (log2)” value in data set [1] and in data set [2] were 1.27 ± 0.13 and -1.64 ± 0.37, respectively.
On to “ACATTTGTGGATACAACCATAAAATGATAATTACACCCATAAATTCATCATTATCACACCCAATTTAACTATAACGCTCTGATCATAGTCAGACCAACATTGCTACGACCCGTATTCGCACCGACAC”, for which the entries for the “relative integration efficiency (log2)” value in data set [1] and in data set [2] were 1.48 ± 0.12 and -2.03 ± 0.49, respectively.
For “ACATTTGTGGATACAACCATAAAATGATAATTACACCCATAAATTCATCATTATCACCCCCAATTTAACTATAACGCTCTGATCATAGTCAGACCAACATTGCTACGACCCGTATTCGCACCGACAC”, the entries for the “relative integration efficiency (log2)” value in data set [1] and in data set [2] were 1.385 ± 0.0021 and -1.88 ± 0.43, respectively.
The corresponding values for “ACATTTGTGGATACAACCATAAAATGATAATTACACCCATAAATTCATTATTATCACACCCAATTTAACTATAACGCTCTGATCATAGTCAGACCAACATTGCTACGACCCGTATTCGCACCGACAC” are 0.908 ± 0.36 and -2.59 ± 0.53.
For “ACATTTGTGGATACAACCATAAAATGATAATTACACCCATAAATTGATAATTATCACCCCCAATTTAACTATAACGCTCTGATCATAGTCAGACCAACATTGCTACGACCCGTATTCGCACCGACAC” the same measures were 2.44 ± 0.065 and -0.606 ± 0.13.
For “ACATTTGTGGATACAACCATAAAATGATAATTACACCCATAAATTGATCATTATCACACCCAATTTAACTATAACGCTCTGATCATAGTCAGACCAACATTGCTACGACCCGTATTCGCACCGACAC” the same measures were 1.89 ± 0.19 and -1.46 ± 0.31.
For “ACATTTGTGGATACAACCATAAAATGATAATTACACCCATAAATTGATCATTATCACCCCCAATTTAACTATAACGCTCTGATCATAGTCAGACCAACATTGCTACGACCCGTATTCGCACCGACAC”, the “relative integration efficiency (log2)” value in data set [1] was 1.99 ± 0.056; in data set [2] it was -1.27 ± 0.17.
The corresponding values for “ACATTTGTGGATACAACCATAAAATGATAATTACACCCATAAATTTATAATTATCACACCCAATTTAACTATAACGCTCTGATCATAGTCAGACCAACATTGCTACGACCCGTATTCGCACCGACAC” are 1.8 ± 0.36 and -1.09 ± 0.41.
Turning to “ACATTTGTGGATACAACCATAAAATGATAATTACACCCATAAATTTATTATTATCACACCCAATTTAACTATAACGCTCTGATCATAGTCAGACCAACATTGCTACGACCCGTATTCGCACCGACAC”, the “relative integration efficiency (log2)” value in data set [1] was 1.47 ± 0.11; in data set [2], -2.14 ± 0.55.
In the case of “ACATTTGTGGATACAACCATAAAATGATAATTACCACCCATAAATTGATAATTATCACACCCATTTAACTATAACGCTCTGATCATAGTCAGACCAACATTGCTACGACCCGTATTCGCACCGACAC”, the “relative integration efficiency (log2)” value in data set [1] is 1.54 ± 0.083; in data set [2] it was -1.11 ± 0.24.
The corresponding values for “ACATTTGTGGATACAACCATAAAATGATAATTACCACCCATACATTGATAATTATCACACCCATTTAACTATAACGCTCTGATCATAGTCAGACCAACATTGCTACGACCCGTATTCGCACCGACAC” are -0.296 ± 0.095 and -2.53 ± 0.19.
The corresponding values for “ACATTTGTGGATACAACCATAAAATGATAATTACCACCCCTAAATTGATAATTATCACACCCATTTAACTATAACGCTCTGATCATAGTCAGACCAACATTGCTACGACCCGTATTCGCACCGACAC” are -0.51 ± 0.037 and -2.781 ± 0.006.
For “ACATTTGTGGATACAACCATAAAATGATAATTACCACCCCTACATTGATAATTATCACACCCATTTAACTATAACGCTCTGATCATAGTCAGACCAACATTGCTACGACCCGTATTCGCACCGACAC” the same measures were -0.503 ± 0.055 and -3.07 ± 0.21.
As to “ACATTTGTGGATACAACCATAAAATGATAATTCACCCATAAATTGATAATTATCACACCCCAATTTAACTATAACGCTCTGATCATAGTCAGACCAACATTGCTACGACCCGTATTCGCACCGACAC”, the “relative integration efficiency (log2)” value is 1.23 ± 0.028 in data set [1] and -1.92 ± 0.17 in data set [2].
Turning to “ACATTTGTGGATACAACCATAAAATGATAATTCACCCATCAATTGATAATTATCACACCCCAATTTAACTATAACGCTCTGATCATAGTCAGACCAACATTGCTACGACCCGTATTCGCACCGACAC”, the results for the “relative integration efficiency (log2)” value in data set [1] and in data set [2] were 0.328 ± 0.26 and -2.89 ± 0.38, respectively.
For “ACATTTGTGGATACAACCCTAAAATGATAATTACACCCATAAATGGATAATTATCACACCCAATTTAACTATAACGCTCTGATCATAGTCAGACCAACATTGCTACGACCCGTATTCGCACCGACAC” the same measures were -0.593 ± 0.47 and -3.64 ± 0.39.
“ACATTTGTGGATACAACCCTAAAATGATAATTACACCCATAAATGGATAATTATCACCCCCAATTTAACTATAACGCTCTGATCATAGTCAGACCAACATTGCTACGACCCGTATTCGCACCGACAC”: the “relative integration efficiency (log2)” value was -1.16 ± 0.27 in data set [1] and -3.8 ± 0.4 in data set [2].
The corresponding values for “ACATTTGTGGATACAACCCTAAAATGATAATTACACCCATAAATGGATCATTATCACACCCAATTTAACTATAACGCTCTGATCATAGTCAGACCAACATTGCTACGACCCGTATTCGCACCGACAC” are -1.6 ± 0.071 and -3.94 ± 0.38.
As for “ACATTTGTGGATACAACCCTAAAATGATAATTACACCCATAAATGGATCATTATCACCCCCAATTTAACTATAACGCTCTGATCATAGTCAGACCAACATTGCTACGACCCGTATTCGCACCGACAC”, the “relative integration efficiency (log2)” value in data set [1] is -1.88 ± 0.26; in data set [2], -4.36 ± 0.35.
For “ACATTTGTGGATACAACCCTAAAATGATAATTACACCCATAAATTCATAATTATCACACCCAATTTAACTATAACGCTCTGATCATAGTCAGACCAACATTGCTACGACCCGTATTCGCACCGACAC” the same measures were -2.97 ± 0.11 and -5.07 ± 0.49.
The corresponding values for “ACATTTGTGGATACAACCCTAAAATGATAATTACACCCATAAATTCATAATTATCACCCCCAATTTAACTATAACGCTCTGATCATAGTCAGACCAACATTGCTACGACCCGTATTCGCACCGACAC” are -2.64 ± 0.13 and -4.88 ± 0.16.
The corresponding values for “ACATTTGTGGATACAACCCTAAAATGATAATTACACCCATAAATTCATCATTATCACACCCAATTTAACTATAACGCTCTGATCATAGTCAGACCAACATTGCTACGACCCGTATTCGCACCGACAC” are -1.67 ± 0.21 and -4.92 ± 0.15.
“ACATTTGTGGATACAACCCTAAAATGATAATTACACCCATAAATTCATCATTATCACCCCCAATTTAACTATAACGCTCTGATCATAGTCAGACCAACATTGCTACGACCCGTATTCGCACCGACAC”: the figures for the “relative integration efficiency (log2)” value in data set [1] and in data set [2] were -1.47 ± 0.4 and -4.53 ± 0.011, respectively.
In the case of “ACATTTGTGGATACAACCCTAAAATGATAATTACACCCATAAATTGATAATTATCACACCCAATTTAACTATAACGCTCTGATCATAGTCAGACCAACATTGCTACGACCCGTATTCGCACCGACAC”, the entries for the “relative integration efficiency (log2)” value in data set [1] and in data set [2] were 1.32 ± 0.36 and -1.73 ± 0.26, respectively.
“ACATTTGTGGATACAACCCTAAAATGATAATTACACCCATAAATTGATAATTATCACCCCCAATTTAACTATAACGCTCTGATCATAGTCAGACCAACATTGCTACGACCCGTATTCGCACCGACAC”: the “relative integration efficiency (log2)” value in data set [1] was 0.686 ± 0.29; in data set [2], -2.2 ± 0.29.
Take “ACATTTGTGGATACAACCCTAAAATGATAATTACACCCATAAATTGATCATTATCACACCCAATTTAACTATAACGCTCTGATCATAGTCAGACCAACATTGCTACGACCCGTATTCGCACCGACAC”: the “relative integration efficiency (log2)” value was 0.117 ± 0.091 in data set [1] and -3.19 ± 0.51 in data set [2].
The corresponding values for “ACATTTGTGGATACAACCCTAAAATGATAATTACACCCATAAATTGATCATTATCACCCCCAATTTAACTATAACGCTCTGATCATAGTCAGACCAACATTGCTACGACCCGTATTCGCACCGACAC” are 0.316 ± 0.5 and -2.87 ± 0.27.
For “ACATTTGTGGATCCAACCATAAAATGATAATTACACCCATAAATGGATAATTATCACACCCAATTTAACTATAACGCTCTGATCATAGTCAGACCAACATTGCTACGACCCGTATTCGCACCGACAC” the same measures were 1.18 ± 0.021 and -1.38 ± 0.18.
